This note sets out measurements from patent US20120231006A1 (Amgen, published 2012).

The target of assay [1] is human Orai1 (human, UniProt Q96D31 1-301). The assay can be described thus: cell-based or functional assay.
The target in assay [2] is T1, mOrai1-hOrai1 ECL2 chimeric protein (human/mouse chimera, UniProt Q8BWG9 1-304 (mouse entry)).
T1 construct: mouse Orai1 with human ECL2; also called Ch
The assay can be described thus: FACS, 293EBNA, RFI-POC grade. Details: concentration or dose not given beside the values. From the text:
(§1) FIG. 16A-D illustrates the results of FACS analysis showing binding to the indicated mOrai1-hOrai1 ECL2 chimeric mutants expressed on the surface of HEK-293-EBNA cells. Transfected cells were stained first with recombinant monoclonal antibodies then counter-stained with a secondary phycoerythrin-labeled goat (“Gt”) anti-human (“Hu”) IgG F(ab′)₂ antibody fragment and visualized using FACS. In FIG. 16B and FIG. 16D, The values of Relative Fluorescence Intensity as Percent of Control (RFI-POC) are calculated from the relative fluorescence intensity geometric mean (Geo Mean). The geometric mean is an average calculated by multiplying a series of numbers and taking the nth root where n is the number of numbers in the series. It is a statistical average of a set of transformed numbers often used to represent a central tendency in a highly variable data set that minimizes the effects of extreme values.
(§2) Table 11A and Table 11B feature a schematic representation of the POC data from FIG. 16B and FIG. 16D, respectively, where the binding results are recorded as (+++) denoting binding POC from 40% to 100%, (++) for POC of 5% to less than 40%, (+) for POC from 1% to less than 5% and (−) as lack of binding with POC less than 1%.

The target of assay [3] is T2, mOrai1-hOrai1 ECL2 (VIV) protein (human/mouse chimera, UniProt Q8BWG9 1-304 (mouse entry)).
T2 construct: also called Ch
T2 sequence (Q8BWG9 other isoform, or with tags, fused parts or gaps): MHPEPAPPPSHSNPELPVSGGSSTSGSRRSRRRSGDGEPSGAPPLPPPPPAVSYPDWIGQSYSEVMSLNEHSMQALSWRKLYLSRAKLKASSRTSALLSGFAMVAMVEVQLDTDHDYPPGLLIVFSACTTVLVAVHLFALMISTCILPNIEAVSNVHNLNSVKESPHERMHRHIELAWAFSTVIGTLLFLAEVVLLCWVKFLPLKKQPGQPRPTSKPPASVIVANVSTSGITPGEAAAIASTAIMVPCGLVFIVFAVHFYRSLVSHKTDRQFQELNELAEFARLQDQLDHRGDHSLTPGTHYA
In words: FACS, 293EBNA, RFI-POC grade. Details: concentration or dose not given beside the values.
Description: as §1, §2

Assay [4] concerns the target T3, mOrai1-hOrai1 ECL2 (HSD) protein (human/mouse chimera, UniProt Q8BWG9 1-304 (mouse entry)).
T3 construct: also called Ch
In words: FACS, 293EBNA, RFI-POC grade. Also on record: concentration or dose not given beside the values.
Description: as §1, §2

The target of assay [5] is human Orai3 (human, UniProt Q9BRQ5 1-295). In words: FACS, 293EBNA transfectants. How it is done:
(§3) Purified monoclonal antibodies from hybridoma supernantants of the subclones derived from initial hits were assessed for binding to human Orai1, Orai2 and Orai3 expressed on HEK-293-EBNA cells along with vector transfected control parental cells. Cells stained with or without primary mAbs were counter-stained with a secondary phycoerythrin-labeled goat (“Gt”) anti-human (“Hu”) IgG F(ab′)₂ antibody fragment and visualized using FACS.
(§4) FACS binding analysis. Transfected 293EBNA cells transiently expressed hOrai1, human Orai2, or human Orai3 (results of binding comparison in FIG. 11A-B), or hOrai1(S218G) (results of binding comparison in FIG. 12A-B); or hOrai1 and hSTIM1; mOrai1 and mouse STIM1; or rat Orai1 and rat STIM1 (results of binding comparison in FIG. 13). The transfected cells were harvested at 48 hours post-transfection. Cells transfected with pcDNA3.1 were used as negative controls. Cells were washed once with ice-cold 1×PBS, resuspended in ice-cold FACS buffer (1×D-PBS+2% goat serum), and 2×10⁵ cells in […] were stained per antibody combination. All antibody incubation steps were performed on ice for 1 hour. […] Next, the unlabelled antibody was detected using goat F(ab′)₂ anti-mouse or anti-human IgG-phycoerythrin (IgG-PE), followed by a wash with 200 μL of ice-cold FACS buffer before flow cytometry analysis. Unstained cells and cells stained with detecting antibodies were used as negative controls. The values of relative level of fluorescence were calculated using FCS Express (De Novo Software) and mean values were calculated using log-transformed data (geometric mean). Purified mAbs were assessed by FACS assay for their ability to specifically bind human Orai1, Orai2 and Orai3 proteins expressed on HEK-293 cells.
In general terms: A flow cytometer gives signals particle by particle.

Assay [6] concerns the target T4, human Orai2 (human, UniProt Q96SN7 1-254).
T4 construct: also called hOrai2
The assay can be described thus: FACS, 293EBNA transfectants. Here is the method: as §3, §4

The target of assay [7] is T5, hOrai1-mOrai1 ECL2 chimeric protein (human/mouse chimera, UniProt Q96D31 1-301).
T5 construct: human Orai1 with mouse ECL2; also called Ch
T5 sequence (Q96D31 other isoform, or with tags, fused parts or gaps mutant): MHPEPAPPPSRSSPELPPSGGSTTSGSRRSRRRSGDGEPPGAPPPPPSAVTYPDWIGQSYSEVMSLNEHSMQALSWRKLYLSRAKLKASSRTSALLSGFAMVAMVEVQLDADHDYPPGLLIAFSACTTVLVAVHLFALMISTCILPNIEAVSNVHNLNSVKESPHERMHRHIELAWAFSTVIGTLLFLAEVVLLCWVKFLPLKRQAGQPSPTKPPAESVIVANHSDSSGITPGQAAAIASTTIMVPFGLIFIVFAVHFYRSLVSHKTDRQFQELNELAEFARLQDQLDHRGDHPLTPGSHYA
The assay can be described thus: FACS, 293EBNA transfectants. An excerpt: FIG. 15A-B illustrates the results of FACS analysis showing binding to human Orai1 extracellular loop 2-mouse Orai1 mutant expressed on the surface of HEK-293-EBNA cells. HEK-293-EBNA cells were transiently transfected with mouse Orai1 mutant where human Orai1 extracellular loop 2 replaced the mouse Orai1 extracellular loop 2 and human Orai1 mutant where mouse Orai1 extracellular loop 2 replaced human extracellular loop 2. Transfected cells were stained first with recombinant monoclonal antibodies then counter-stained with a secondary phycoerythrin-labeled goat (“Gt”) anti-human (“Hu”) IgG F(ab′)₂ antibody fragment and visualized using FACS.
FACS binding analysis. Transfected 293EBNA cells transiently expressed hOrai1-mOrai1 ECL2 or mOrai1-hOrai1 ECL2 chimera. The transfected cells were harvested at 48 hours post-transfection. Cells transfected with pcDNA3.1 were used as negative controls. Cells were washed once with ice-cold 1×PBS, resuspended in ice-cold FACS buffer (1×D-PBS+2% goat serum), and 2×10⁵ cells in 100 μL were stained per antibody combination. All antibody incubation steps were performed on ice for 1 hour. […] Next, the unlabelled antibody was detected using goat F(ab′)₂ anti-mouse or anti-human IgG-phycoerythrin (IgG-PE), followed by a wash with 200 μL of ice-cold FACS buffer before flow cytometry analysis. Unstained cells and cells stained with detecting antibodies were used as negative controls. The values of relative level of fluorescence were calculated using FCS Express (De Novo Software) and mean values were calculated using log-transformed data (geometric mean). The results of the FACS analysis are shown in FIG. 15A-B, which supports the conclusion that the hOrai1 ECL2 domain is the region of hOrai1 where antibodies of the present invention bind.

In assay [8] the target is T6, mouse Orai1 (mouse, UniProt Q8BWG9 1-304).
T6 construct: co-expressed with mouse STIM1; also called mOrai1
T6 sequence (Q8BWG9 whole entry): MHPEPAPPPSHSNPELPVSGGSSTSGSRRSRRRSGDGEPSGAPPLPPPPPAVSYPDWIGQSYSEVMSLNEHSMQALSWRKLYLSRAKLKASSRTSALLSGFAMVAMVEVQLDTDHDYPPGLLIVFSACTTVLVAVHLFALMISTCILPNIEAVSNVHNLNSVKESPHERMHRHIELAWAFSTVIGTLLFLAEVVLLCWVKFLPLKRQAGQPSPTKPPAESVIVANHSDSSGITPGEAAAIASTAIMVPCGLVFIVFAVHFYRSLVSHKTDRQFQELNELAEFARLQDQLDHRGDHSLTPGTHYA
The assay can be described thus: FACS, 293EBNA transfectants with STIM1, thapsigargin. Here is the method:
(§5) FIG. 13A-B illustrates the results of FACS analysis showing binding to human Orai1 expressed on the surface of HEK-293-EBNA cells that were treated with 2 μM Thapsigargin. HEK-293-EBNA cells were transiently transfected with human Orai1 and human STIM1, mouse Orai1 and mouse STIM1, rat Orai1 and rat STIM1 and control empty vector. Transfected cells were stained first with recombinant monoclonal antibodies then counter-stained with a secondary phycoerythrin-labeled Gt anti-Hu IgG F(ab′)₂ or Gt anti-Mu IgG F(ab′)₂ antibody fragment, as appropriate, and visualized using FACS.
as §4

Assay [9] addresses T7, rat Orai1 (rat, UniProt Q5M848 1-304).
T7 construct: co-expressed with rat STIM1; also called rOrai1
The assay is described as above. How it is done: as §5, §4

T4 sequence (Q96SN7 whole entry): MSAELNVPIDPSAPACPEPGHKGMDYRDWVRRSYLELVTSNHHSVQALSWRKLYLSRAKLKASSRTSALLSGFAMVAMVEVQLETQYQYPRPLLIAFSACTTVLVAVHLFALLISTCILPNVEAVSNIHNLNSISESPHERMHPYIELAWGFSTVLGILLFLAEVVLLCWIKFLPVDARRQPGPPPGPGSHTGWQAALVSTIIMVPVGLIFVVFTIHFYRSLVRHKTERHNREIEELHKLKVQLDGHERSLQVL
human Orai1, sequence (Q96D31 whole entry): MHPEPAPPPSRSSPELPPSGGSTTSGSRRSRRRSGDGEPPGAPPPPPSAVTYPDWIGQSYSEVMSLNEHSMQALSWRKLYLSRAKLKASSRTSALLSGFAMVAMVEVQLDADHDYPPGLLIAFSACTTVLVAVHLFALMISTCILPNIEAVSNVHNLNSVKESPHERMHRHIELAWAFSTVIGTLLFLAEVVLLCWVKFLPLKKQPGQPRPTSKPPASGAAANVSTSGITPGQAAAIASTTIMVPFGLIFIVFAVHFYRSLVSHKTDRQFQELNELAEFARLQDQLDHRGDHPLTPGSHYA
T7 sequence (Q5M848 whole entry): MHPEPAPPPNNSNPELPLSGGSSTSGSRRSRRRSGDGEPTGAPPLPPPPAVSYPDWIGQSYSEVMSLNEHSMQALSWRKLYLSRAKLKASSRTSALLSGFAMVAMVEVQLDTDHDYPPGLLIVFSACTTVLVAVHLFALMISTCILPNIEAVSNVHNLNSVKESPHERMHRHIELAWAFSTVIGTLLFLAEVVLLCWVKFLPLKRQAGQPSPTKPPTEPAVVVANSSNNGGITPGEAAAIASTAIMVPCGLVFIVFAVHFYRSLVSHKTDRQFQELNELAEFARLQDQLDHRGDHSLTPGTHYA
T1 sequence (Q8BWG9 other isoform, or with tags, fused parts or gaps mutant): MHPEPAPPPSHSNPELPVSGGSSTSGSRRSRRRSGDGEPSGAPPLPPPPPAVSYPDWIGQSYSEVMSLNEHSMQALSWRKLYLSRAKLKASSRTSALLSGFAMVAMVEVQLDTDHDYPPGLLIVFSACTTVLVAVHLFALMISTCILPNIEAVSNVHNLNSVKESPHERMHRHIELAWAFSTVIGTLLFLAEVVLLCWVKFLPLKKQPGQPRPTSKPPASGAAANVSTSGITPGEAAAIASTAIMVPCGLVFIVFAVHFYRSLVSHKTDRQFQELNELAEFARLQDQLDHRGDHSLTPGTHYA
T3 sequence (Q8BWG9 other isoform, or with tags, fused parts or gaps): as the sequence (Q8BWG9 other isoform, or with tags, fused parts or gaps mutant) above, with V226H, T228D counted along it

B1: mAb 5A4.2 (antibody, human IgG2, lambda, V domains shown)
VH: QVQLVQSGAEVKKPGASVKVSCKASGYTFTDYYMNWVRQAPGQGLEWMGWINPNSGGTKYAQKFQGRVTMTRDTSIRTAYMELSRLRSDDTAVYYCSREYGGNSDWFDPWGQGTLVTVSS
VL: QSVLTQPPSVSGAPGQRVTISCTGSSSNIGAGYDVHWYQQLPGTAPKLLIYGNSNRPSGVPDRFSGSKSGTSASLAITGLQAEDEADYYCQSYDNRLSDSVVIGGGTKLTVQG
notes: fully human IgG2 lambda, Campaign 2
With B1, the “IC50 IFN-γ, whole blood Donor A” value in assay [1] is 4.83 nM. Moreover, in [1], the “IC50 IFN-γ, whole blood Donor B” value worked out at 2.76 nM. The “IC50 IL-2, whole blood Donor A” value in assay [1] amounted to 1.88 nM. Further, the “IC50 IL-2, whole blood Donor B” value in assay [1] turned out to be 1.21 nM. Besides, the “POC (percent of control, FACS Geo Mean relative to binding to Ch. 1)” value in assay [2], in assay [3] and in [4] was 40 to 100% each time. The binding result in assay [5], in assay [6], in [7], in assay [8] and in assay [9] was “no binding (tested: 1 µg)” throughout.

B2: mAb 5B1.1 (antibody, human IgG2, lambda, V domains shown)
VH: QVQLVQSGAEVKKPGASVKVSCKASGYTFTDYYINWVRQAPGQGLEWMGWINPNSGGSSYAQKFQGRVTMTRDTSISTAHMELIRLRSDDTAVYYCARERGGIEDWFDPWGQGTLVTVSS
VL: QSVLTQPPSVSGAPGQRVTISCTGSSSNIGAGYDVHWYQQLPGTAPKLLIYGNSNRPSGVPDRFSGSKSGTSASLAITKFQAEDEAVYYCQSYGSGLSGVVFGGGTKLTVLG
notes: fully human IgG2 lambda, Campaign 2; also called mAb 5Bl1.1
B2: the “IC50 IFN-γ, whole blood Donor A” value in assay [1] stood at 7.4 nM. The “IC50 IFN-γ, whole blood Donor B” value in assay [1] worked out at 10.7 nM. Besides, the “IC50 IL-2, whole blood Donor A” value in [1] amounted to 2.73 nM. The “IC50 IL-2, whole blood Donor B” value in assay [1] amounted to 4.45 nM. Further, the “POC (percent of control, FACS Geo Mean relative to binding to Ch. 1)” value in [2], in assay [3] and in assay [4] was 40 to 100% throughout. In addition, the binding result in [5], in assay [6], in assay [7], in assay [8] and in assay [9] was “no binding (tested: 1 µg)” throughout.

B3: mAb 5F2.1 (antibody, human IgG2, lambda, V domains shown)
VH: QVQLVQSGAEVKKPGASVKVSCKASGYTFTDYYMNWVRQAPGQGLEWMGWINPNSGGTHYAQKFQGRVTMTRDTSISTAYMELSRLRSDDTAVYYCAREYGGYSDWFDPWGQGTLVTVSS
VL: QSVLTQPPSVSGAPGQRVTISCTGSRSNIGAGYDVHWYQQLPRTAPKLLIYDNSNRPSGVPDRFSGSKSGSSASLAITGLQAEDEADYYCQSYDNSLSDSVLIGGGTKLTVLG
notes: as for B1
B3: the “IC50 IL-2, whole blood Donor A” value in [1] was found to be 4.83 nM. The “IC50 IL-2, whole blood Donor B” value in [1] is 3.79 nM. For the same molecule, the “POC (percent of control, FACS Geo Mean relative to binding to Ch. 1)” value in assay [2], in assay [3] and in assay [4] was 40 to 100% each time. The binding result in assay [5], in assay [6], in assay [7], in assay [8] and in assay [9] was “no binding (tested: 1 µg)” throughout.

B4: mAb 5C1.1 (antibody, human IgG2, lambda, V domains shown)
VH: QVQLVQSGAEVKKPGASVKVSCKASGYTFTDYYMNWVRQAPGQGLEWMGWINPNSGGTKYAQKFQGRVTMTRDTSIRTAYMELSRLRSDDTAVYYCAREYGGNSDWFDPWGQGTLVTVSS
VL: QSVLTQPPSVSGAPGQRVTISCTGSSSNIGAGYDVHWYQQLPGTAPKLLIYGNSNRPSGVPDRFSGSKSGTSASLAITGLQAEDEADYYCQSYDNRLSDSVVIGGGTKLAVQG
notes: as for B1
On to B4, for which the “IC50 IFN-γ, whole blood Donor A” value in [1] turned out to be 5.42 nM. The “IC50 IFN-γ, whole blood Donor B” value in [1] amounted to 2.41 nM. Besides, the “IC50 IL-2, whole blood Donor A” value in assay [1] is 2.18 nM. Further, in [1], the “IC50 IL-2, whole blood Donor B” value turned out to be 1.24 nM. Further, the “POC (percent of control, FACS Geo Mean relative to binding to Ch. 1)” value in [2], in assay [3] and in assay [4] was 40 to 100% in each case. Further, the binding result in assay [5], in assay [6], in assay [7], in [8] and in assay [9] was “no binding (tested: 1 µg)” in each case.
